Data on one molecule can be found in patent US20180142023A1 (Bristol-Myers Squibb, published 2018).

This assay concerns the target human CD28 (human, UniProt P10747 19-220). In words: cell-based or functional assay.

B1: 1h-76 (other)
VL: DIQMTQSPSSLSASVGDRVTITCRASQYIGTRLVWYQQKPGKAPKLLIYQSSLLQSGVPSRFRGSGSGTDFTLTISSLQPEDSATYYCQQTALVPYTFGQGTKVEIKR
On to B1, for which the “Luciferase assay (EC50)” value stood at 1800 nM.
